The supplement of paper PMC10126150
± gives the standard deviation of the averaged measurements.

Tested on: ATP
Assay: switch fluorescence ratio, 500 uM ATP over buffer (Cy3 cluster intensity, sum of 5 cycles each) (fold (ratio)); higher = stronger signal-on switching upon ATP binding; sequences stand for … in TCGTCGGCAGCGTCAGATGTGTATAAGAGACAGTTTTTTTTTTTTTTTTTTTTTTTTT…TC
Settings: aptamer strand: ATP DNA aptamer (quencher-CACCTGGGGGAGTATTGCGGAGGAAGG + anchor), 100 nM annealed; ATP concentration: 500 uM
Procedure, shortened: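 Between each of five buffer/ATP cycles, the flow-cell was stripped with NaOH and re-annealed. Each cycle imaged Cy3-labelled switching-strand clusters, annealed to 100 nM quencher-labelled ATP aptamer on a modified Illumina MiSeq flow-cell, first in selection buffer and then after 15 min with 500 uM ATP at 22 °C. The fluorescence ratio is summed target-cycle over summed buffer-cycle Cy3 intensity per cluster, averaged per switch-domain sequence, with clusters outside 100-1000 RFU excluded.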
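Also: ATP exposure 15 min at 22 °C before imaging.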

| Sequence | switch fluorescence ratio |
| --- | --- |
| ATTCATATGT | 0.999 ± 0.018 |
| TATAATAAGG | 0.9996 ± 0.0098 |
| TGGCTAAACG | 0.992 ± 0.019 |
| AGGGAGTTAT | 1 ± 0.0014 |
| CAGTTCCCGG | 1.02 ± 0.063 |
| TAATTCGGAT | 2.07 ± 1.8 |
| CGGGACGGGC | 1.04 ± 0.043 |
| TCACTTTGCG | 0.984 ± 0.032 |
| CCAAAGCCTC | 2.69 ± 0.21 |
| GCTTTTAGTG | 1 ± 0.039 |
| TTTTTGTTT | 0.988 ± 0.01 |
| TCTATAATCG | 0.977 ± 0.034 |
| AAGGATTATA | 0.985 ± 0.061 |
| TTTATGGAAG | 0.988 ± 0.013 |
| CAGCGGGGCC | 0.994 ± 0.011 |
| TGATGATATA | 1.02 ± 0.013 |
| ATTGGCGTGC | 0.987 ± 0.03 |
| TAGAAAATAA | 0.995 ± 0.021 |
| ACGGCGCTTG | 1.051 ± 0.0053 |
| TTACAATTTT | 0.985 ± 0.019 |
| ATGAGTATGT | 0.9961 ± 0.0014 |
| TACTAAGTTG | 1.07 ± 0.055 |
| TGGAGGGCTT | 1.04 ± 0.021 |

| Sequence | switch fluorescence ratio |
| --- | --- |
| CTGGGATTTT | 0.959 ± 0.0021 |
| TTTGCCTTTG | 0.9991 ± 0.0076 |
| CGCGCCGGGC | 1.03 ± 0.057 |
| TTTGTGGCTT | 1.38 ± 0.65 |
| CAGGAGGCGG | 1.02 ± 0.037 |
| GCTGGTGCGA | 1.005 ± 0.0099 |
| AATATTAGGC | 1.03 ± 0.03 |
| TGCAGCTTGC | 1.25 ± 0.24 |
| AAAACTGAGC | 1.08 ± 0.031 |
| GTTTGACACT | 0.99 ± 0.042 |
| GGGCAAGCGA | 1.08 ± 0.043 |
| TGAGTGCAGC | 1.08 ± 0.12 |
| CACGAAGGAA | 1.07 ± 0.019 |
| TGGACGTCGT | 0.987 ± 0.019 |
| GGGGGAGGCT | 0.987 ± 0.034 |
| ATAAACCTTA | 1.29 ± 0.28 |
| CCAAAGAATT | 1.03 ± 0.059 |
| AATTAGGTGG | 1.01 ± 0.039 |
| AGGCGGGGGT | 1.018 ± 0.0094 |
| TGCGCCAACT | 1.06 ± 0.011 |
| ATGCACGAAG | 1 ± 0.057 |
| ATGGGTCTCT | 0.997 ± 0.017 |
| CGGAGAGAGC | 0.993 ± 0.011 |

| Sequence | switch fluorescence ratio |
| --- | --- |
| TAACTTACAT | 1.19 ± 0.018 |
| AAAGAGAAGT | 1.02 ± 0.019 |
| ACGGAGGCAT | 1.31 ± 0.024 |
| GTCAGTGGGT | 0.9682 ± 0.0079 |
| GGGACCTGCT | 0.951 ± 0.02 |
| ACCAGGGGGG | 1.07 ± 0.058 |
| AGTAATGAAA | 0.975 ± 0.035 |
| TGTACCTTTA | 1.04 ± 0.038 |
| CGGATGCGGT | 1.013 ± 0.0075 |
| GGTTGGTCTA | 0.979 ± 0.028 |
| TGGGGCTTTG | 1.03 ± 0.026 |
| AGGGGGAGTA | 0.993 ± 0.027 |
| CTCGCTTTTT | 1.2 ± 0.29 |
| TCTTGGCACA | 1.036 ± 0.0061 |
| TTAAACGC | 1.03 ± 0.012 |
| ATGATTTGGG | 1.01 ± 0.011 |
| GGGCTAGGTA | 1.01 ± 0.0074 |
| TACTAACATT | 1.14 ± 0.019 |
| AGGTGGCATT | 1.04 ± 0.015 |
| GGCCGGAGAC | 1.15 ± 0.041 |
| CTTTCGGGGG | 1.14 ± 0.2 |
| AGAAGGTGTT | 1.07 ± 0.078 |
| CTGCGGGGGT | 1.03 ± 0.038 |

| Sequence | switch fluorescence ratio |
| --- | --- |
| GGGTCCTTGT | 1.01 ± 0.041 |
| GGTTAAAGGT | 1.02 ± 0.026 |
| GTTGCTGGTG | 1.025 ± 0.0071 |
| TAAAAGAGGA | 0.9974 ± 0.0058 |
| CAGTTGGACA | 0.967 ± 0.031 |
| ATTAGTCGGT | 0.97109 ± 0.00068 |
| GGTAGCAGCG | 1.05 ± 0.059 |
| GGATTTATGA | 1.002 ± 0.0092 |
| CAAGAGAATG | 0.999 ± 0.037 |
| AGAAAAGAA | 1 ± 0.036 |
| GTTTTTGTGG | 0.992 ± 0.01 |
| GGTTCAGCGG | 0.959 ± 0.035 |
| GAGAGAAAAT | 1.49 ± 0.63 |
| TCTATTTGTG | 0.966 ± 0.02 |
| TCTGATGCGT | 1.03 ± 0.0038 |
| GTTTTGGGGT | 0.986 ± 0.013 |
| TAGGCTGTTA | 0.995 ± 0.036 |
| TTAAGCTTAT | 1.012 ± 0.006 |
| CGGGGGAATG | 0.967 ± 0.027 |
| AGGGAGGGGT | 0.983 ± 0.021 |
| TTTATTTACG | 1.033 ± 0.0082 |
| GGCGACGGGG | 1 ± 0.02 |
| TAATAGTTT | 1.04 ± 0.033 |

| Sequence | switch fluorescence ratio |
| --- | --- |
| CTGTCGACTT | 0.986 ± 0.011 |
| TGTGTTTTGG | 0.99 ± 0.027 |
| TTAGTTATTC | 1.022 ± 0.0032 |
| CGGGTAATCG | 1.01 ± 0.0082 |
| CCATTGTCCC | 1.05 ± 0.029 |
| TAATATTTAA | 1.05 ± 0.009 |
| GTTTATTAAA | 1.04 ± 0.012 |
| CGTTAGTCGT | 0.981 ± 0.039 |
| ACGGTGTGCG | 1 ± 0.058 |
| GCTGGTGCTT | 0.974 ± 0.022 |
| CTGGATTTAA | 1.0192 ± 7.7e-05 |
| GATGGTTGTG | 0.95 ± 0.037 |
| AGGGCAAGTG | 0.996 ± 0.034 |
| GCTGTTGCTG | 1 ± 0.035 |
| ACTTGGGGTA | 0.992 ± 0.04 |
| GAGGATATGT | 0.971 ± 0.035 |
| GATGTATGTA | 0.973 ± 0.021 |
| TTTGATCAGA | 1 ± 0.025 |
| AGCTAATTTT | 1.02 ± 0.013 |
| TCAAAGGGTC | 1 ± 0.088 |
| GAAGGGAGTG | 0.986 ± 0.084 |
| GCTTCAATGT | 1.03 ± 0.067 |
| TCCTTTTTTG | 1 ± 0.016 |

| Sequence | switch fluorescence ratio |
| --- | --- |
| GCCAATTATT | 0.991 ± 0.031 |
| AGTTTCTTGT | 0.987 ± 0.03 |
| GCACGCAGGA | 1.054 ± 0.006 |
| TTCTGAAACA | 0.969 ± 0.036 |
| TACTGTTATG | 1.1 ± 0.099 |
| AGTGTGGGGT | 0.979 ± 0.054 |
| GAGGGGTTCT | 0.984 ± 0.043 |
| GACGATGACG | 0.987 ± 0.014 |
| GACCTCACAT | 1.18 ± 0.022 |
| TCATTGGGAC | 1.06 ± 0.028 |
| ACCATATGGA | 1.02 ± 0.064 |
| AGGTCCTTCA | 1.29 ± 0.046 |
| TTTATACCGT | 1.026 ± 0.0028 |
| ATTAGTACTG | 1.02 ± 0.02 |
| TTGGGACTGG | 1.12 ± 0.14 |
| TCAAACGGGG | 1 ± 0.045 |
| ATTATGATAT | 1.01 ± 0.015 |
| GCGGGGGAG | 1.01 ± 0.059 |
| TTTCTAGACC | 1.1 ± 0.12 |
| TATCAGGGGG | 0.988 ± 0.026 |
| GTGTGAAGGC | 1.03 ± 0.02 |
| CATTTCGGGT | 0.992 ± 0.034 |
| GGGTCAGGTA | 0.996 ± 0.03 |

| Sequence | switch fluorescence ratio |
| --- | --- |
| GAAATCAGCA | 1.03 ± 0.023 |
| CCGGGATCTT | 1.05 ± 0.013 |
| CGGGCATGGG | 1.01 ± 0.029 |
| AGAGGGTTGC | 0.978 ± 0.029 |
| AATTTTGGGT | 1 ± 0.041 |
| GGGTTGAACC | 0.994 ± 0.032 |
| TTATATTTTG | 0.998 ± 0.017 |
| TTTGCTTTTG | 0.988 ± 0.021 |
| ACGGGGGCCG | 0.993 ± 0.041 |
| ATTCATGTGT | 1.02 ± 0.026 |
| TACCATTAGT | 1.041 ± 0.0085 |
| TCATGGCGCA | 1.07 ± 0.013 |
| ACGTCAAGAG | 1.45 ± 0.0026 |
| CATAAGTTAT | 1.02 ± 0.02 |
| CGTCTGGGGA | 0.996 ± 0.048 |
| CCGGGGAGTG | 1.14 ± 0.25 |
| CGTTCCAGCC | 1.04 ± 0.041 |
| CAGGGAAGGT | 1.01 ± 0.033 |
| AATCGCTGGG | 0.988 ± 0.022 |
